Substitutions are numbered along the chain they refer to.

By IC50 is commonly meant the concentration at which inhibition is half-maximal. A word on the EC50: it is the concentration at which the effect is half-maximal.

First the molecules themselves.
B1: 2A1-HC-Cys378ins: 2A1 antibody with cysteine inserted at heavy chain position 378 (SEQ ID NO: 36) (antibody)
heavy: DVQLQESGPSLVKPSQSLSLTCTVTGYSITSDFAWNWIRQFPGNKLEWMGYISYSGNTRYNPSLKSRISITRDTSKNQFFLQLNSVTIEDTATYYCVTAGRGFPYWGQGTLVTVSAASTKGPSVFPLAPSSKSTSGGTAALGCLVKDYFPEPVTVSWNSGALTSGVHTFPAVLQSSGLYSLSSVVTVPSSSLGTQTYICNVNHKPSNTKVDKRVEPKSCDKTHTCPPCPAPEFLGGPSVFLFPPKPKDTLMISRTPEVTCVVVDVSHEDPEVKFNWYVDGVEVHNAKTKPREEQYNSTYRVVSVLTVLHQDWLNGKEYKCKVSNKALPAPIEKTISKAKGQPREPQVYTLPPSRDELTKNQVSLTCLVKGFYPSDIAVEWCESNGQPENNYKTTPPVLDSDGSFFLYSKLTVDKSRWQQGNVFSCSVMHEALHNHYTQKSLSLSPG
light: DILMTQSPSSMSVSLGDTVSITCHSSQDINSNIGWLQQRPGKSFKGLIYHGTNLDDEVPSRFSGSGSGADYSLTISSLESEDFADYYCVQYAQFPWTFGGGTKLEIKRTVAAPSVFIFPPSDEQLKSGTASVVCLLNNFYPREAKVQWKVDNALQSGNSQESVTEQDSKDSTYSLSSTLTLSKADYEKHKVYACEVTHQGLSSPVTKSFNRGEC
B2: 2A1-HC-Cys410ins: 2A1 antibody with cysteine inserted at heavy chain position 410 (SEQ ID NO: 44) (antibody)
heavy: DVQLQESGPSLVKPSQSLSLTCTVTGYSITSDFAWNWIRQFPGNKLEWMGYISYSGNTRYNPSLKSRISITRDTSKNQFFLQLNSVTIEDTATYYCVTAGRGFPYWGQGTLVTVSAASTKGPSVFPLAPSSKSTSGGTAALGCLVKDYFPEPVTVSWNSGALTSGVHTFPAVLQSSGLYSLSSVVTVPSSSLGTQTYICNVNHKPSNTKVDKRVEPKSCDKTHTCPPCPAPEFLGGPSVFLFPPKPKDTLMISRTPEVTCVVVDVSHEDPEVKFNWYVDGVEVHNAKTKPREEQYNSTYRVVSVLTVLHQDWLNGKEYKCKVSNKALPAPIEKTISKAKGQPREPQVYTLPPSRDELTKNQVSLTCLVKGFYPSDIAVEWESNGQPENNYKTTPPVLDSDGSFFLYSKLTVDCKSRWQQGNVFSCSVMHEALHNHYTQKSLSLSPG
light: B1 light
B3: 2A1-HC-Cys387ins: 2A1 antibody with cysteine inserted at heavy chain position 387 (SEQ ID NO: 42) (antibody)
heavy: B1 heavy with C381E, E382S, S383N, N384G, G385Q, Q386P, P387E, E388N, N390C
light: B1 light

In one test the test system is EGFRwt-overexpressing human skin squamous cell carcinoma cell line A431. Description: MTS cytotoxicity (cell viability) assay, A431. Particulars: antibodies; 72 hours. Type of test: cell-based. The protocol:
(§1) TDC cytotoxic activity was determined via the following experimental procedure: TDC was added to EGFR-overexpressing or […]-expressing human tumor cell culture medium, and cell viability was determined after 72 hours of cell culture. Cell-based in vitro experiments were used to determine cell viability, cytotoxicity and programmed cell death induced by TDC constituted by the present invention.
(§2) In vitro efficacy of antibody-toxin conjugates was determined via a cell proliferation assay. A CellTiter ^96® AqueousOne Solution Cell was Proliferation Assay purchased commercially from Promega Corp. (Madison, WI). CellTiter ^96® Aqueous One Solution Cell Proliferation Assay (a) is a colorimetric method used to detect the number of living cells in cell proliferation and cytotoxicity experiments. The above reagent contains the novel tetrazole compound [3-(4,5-dimethylthiazol-2-yl)-5-(3-carboxymethoxyphenyl)-2-(4-sulfophenyl)-2H-tetrazolium, inner salt; MTS) as well as an electronic coupling agent (phenazine ethosulfate; PES). […] This convenient “single solution” model is an improvement on the first generation of the CellTiter ^96® Aqueous Assay, in which the electronic coupling agent PMS was supplied separately from the MTS solution. MTS (Owen's reagent) is reduced by cellular organisms into a colored formazan product, which can be directly dissolved in culture medium (FIG. 1). This conversion is likely facilitated by NADPH NADH produced by dehydrogenase present in metabolically active cells. For the assay, a small amount of CellTiter ^96® Aqueous One Solution Reagent is added directly to the medium present in the wells of the culture plate, after which incubation is performed for 1 to 4 hours, followed by reading of the absorbance value at 490 nm using a microplate reader.
(§3) The amount of formazan product detected at 490 nm is proportional to the number of viable cells in culture. Because the formazan product of MTS is soluble in tissue culture medium, CellTiter ^96® Aqueous One Solution Assay requires fewer steps than the MTT or INT methods. A431 (EGFR-overexpressing cells) and U87-[…] (an […] mutant stable cell line) were used in the present invention as an investigative system for performing in vitro efficacy assays. In 96-well plates, cells were plated at 6000 cells/well and 24 hours later, antibody spiking was carried out. […] Cell viability was assayed via MTS 72 hours after treatment.
In turn, B1 displayed an IC50 of over 10 µM.
The molecule B2 came in with an IC50 of over 10 µM.
Still for that read-out and setting: the figure for B3 is over 10 µM.

The target of a further test is T1, Recombinant EGFRVIII-His*6 antigen (Homo sapiens, UniProt P00533, DELINS30-297G).
T1 construct: His*6
As to the kind of experiment: ELISA relative affinity for EGFRvIII. Type of test: binding. Particulars: EGFRvIII-coated plates, A450, read-out: EC50 (nM), mutant antibody affinity. An excerpt:
Insertion Mutation Modification and Parent Antibody 2A1 for EGFRvIII • ELISA was used to compare the relative affinities of 2A1-LC-Cys110ins-mc-vc-PAB-MMAE TDC, 2A1-LC-Cys111ins-mc-vc-PAB-MMAE TDC, 2A1-LC-Cys142ins-mc-vc-PAB-MMAE TDC, 2A1-HC-Cys254ins-mc-vc-PAB-MMAE TDC, 2A1-HC-Cys255ins-mc-vc-PAB-MMAE TDC, 2A1-HC-Cys258ins-mc-vc-PAB-MMAE TDC, 2A1-HC-Cys259ins-mc-vc-PAB-MMAE TDC, 2A1-HC-Cys354ins-mc-vc-PAB-MMAE TDC, 2A1-HC-Cys355ins-mc-vc-PAB-MMAE TDC, 2A1-HC-Cys357ins-mc-vc-PAB-MMAE TDC, 2A1-HC-Cys378ins-mc-vc-PAB-MMAE TDC, 2A1-HC-Cys379ins-mc-vc-PAB-MMAE TDC, 2A1-HC-Cys386ins-mc-vc-PAB-MMAE TDC, 2A1-HC-Cys387ins-mc-vc-PAB-MMAE TDC, 2A1-HC-Cys410ins-mc-vc-PAB-MMAE TDC, and 2A1 for EGFRvIII. The specific process used was as follows:
Recombinant […]-His*6 antigen was used to coat plates; fish skin gelatin was used as a seal; dilution of each insertion mutant antibody was performed separately, up to a maximum concentration 10 μg/ml and a 4-fold gradient dilution was performed for a total of 11 concentrations; HRP-labeled secondary antibodies were used for incubation; TMB was used for development and absorption detection was performed at 450 nm.
In the case of B1, the EC50 was determined as 0.0404 nM.
The same measure, in the same setting: to B2 belongs 0.042 nM; to B3, 0.0452 nM.

In a further test the test system is EFGRvIII-overexpressing human glioma cell line U87-EGFRvIII. As to the kind of experiment: MTS cytotoxicity (cell viability) assay, U87-EGFRvIII. Type of test: cell-based. Particulars: antibodies; 72 hours; read-out: IC50, U87MG-EGFRvIII (MTS). The protocol:
as §1, §2, §3
B1: the IC50 was over 10 µM.
Still for that read-out and setting: the figure for B2 is over 10 µM; for B3 it is over 10 µM.

Values taken from US12678474B2, “Screening of fixed-point coupling sites of cysteine-modified antibody-toxin conjugate (TDC)” (SICHUAN BAILI PHARMACEUTICAL CO. LTD., priority 2017, dated 2026).
